Source: patent US20170052176A1

Legend:
[1] = biological target: CD8 on human CD8+ cells (PBMC) (human); test: capture of PBMC pre-incubated with 1.5 ug anti-CD8 Fab-TST / multimerized soluble Strep-Tactin on Biotin-agarose; flow cytometry with CD8-PE and CD3-APC
[2] = biological target: CD8 on human CD8+ cells (PBMC) (human); test: capture of unlabelled PBMC on a pipette tip of Strep-Tactin-agarose loaded with 1.5 ug anti-CD8 Fab-TST; flow cytometry with CD8-PE and CD3-APC; 7,6% before selection [continued]
[3] = biological target: CD8 on human CD8+ cells (PBMC) (human); test: capture of PBMC pre-incubated with 1.5 ug anti-CD8 Fab-TST / multimerized soluble Strep-Tactin on Biotin-agarose, elution with D-biotin; flow cytometry with CD8-PE and CD3-APC [continued]
[4] = biological target: CD8 on human CD8+ cells (PBMC) (human); test: capture of unlabelled PBMC on a pipette tip of Strep-Tactin-agarose loaded with 1.5 ug anti-CD8 Fab-TST, elution with D-biotin; flow cytometry with CD8-PE and CD3-APC; 7,6% before selection [continued]

Chain of CD8 on human CD8+ cells (PBMC) (human) (P01732 22-235): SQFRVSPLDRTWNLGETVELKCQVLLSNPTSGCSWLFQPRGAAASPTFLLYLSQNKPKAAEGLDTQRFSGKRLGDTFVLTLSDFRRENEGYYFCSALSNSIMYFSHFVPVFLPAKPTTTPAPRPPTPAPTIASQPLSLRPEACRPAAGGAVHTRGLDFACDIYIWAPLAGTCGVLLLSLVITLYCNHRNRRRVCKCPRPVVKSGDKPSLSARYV

Q1-UL, % CD8 PE-positive cells in the wash through fraction [1]: 0.9%
Q1-UL, % CD8 PE-positive cells in the wash through fraction [2]: 2.4%
Q1-UL, % CD8 PE-positive cells in the positive (biotin-eluted) fraction [3]: 72.4%
Q1-UL, % CD8 PE-positive cells in the positive (biotin-eluted) fraction [4]: 58.7%
Substance: anti-CD8 Fab-fragment carrying the Twin-Strep-Tag at the C-terminus of the heavy chain (catalogue number 6-8003, IBA GmbH)
